{"source": "IntAct's records for PubMed 19536138", "key": {"[1]": {"target": "clh1_rat Cltc (UniProt P11442)", "sequence (P11442 whole entry)": "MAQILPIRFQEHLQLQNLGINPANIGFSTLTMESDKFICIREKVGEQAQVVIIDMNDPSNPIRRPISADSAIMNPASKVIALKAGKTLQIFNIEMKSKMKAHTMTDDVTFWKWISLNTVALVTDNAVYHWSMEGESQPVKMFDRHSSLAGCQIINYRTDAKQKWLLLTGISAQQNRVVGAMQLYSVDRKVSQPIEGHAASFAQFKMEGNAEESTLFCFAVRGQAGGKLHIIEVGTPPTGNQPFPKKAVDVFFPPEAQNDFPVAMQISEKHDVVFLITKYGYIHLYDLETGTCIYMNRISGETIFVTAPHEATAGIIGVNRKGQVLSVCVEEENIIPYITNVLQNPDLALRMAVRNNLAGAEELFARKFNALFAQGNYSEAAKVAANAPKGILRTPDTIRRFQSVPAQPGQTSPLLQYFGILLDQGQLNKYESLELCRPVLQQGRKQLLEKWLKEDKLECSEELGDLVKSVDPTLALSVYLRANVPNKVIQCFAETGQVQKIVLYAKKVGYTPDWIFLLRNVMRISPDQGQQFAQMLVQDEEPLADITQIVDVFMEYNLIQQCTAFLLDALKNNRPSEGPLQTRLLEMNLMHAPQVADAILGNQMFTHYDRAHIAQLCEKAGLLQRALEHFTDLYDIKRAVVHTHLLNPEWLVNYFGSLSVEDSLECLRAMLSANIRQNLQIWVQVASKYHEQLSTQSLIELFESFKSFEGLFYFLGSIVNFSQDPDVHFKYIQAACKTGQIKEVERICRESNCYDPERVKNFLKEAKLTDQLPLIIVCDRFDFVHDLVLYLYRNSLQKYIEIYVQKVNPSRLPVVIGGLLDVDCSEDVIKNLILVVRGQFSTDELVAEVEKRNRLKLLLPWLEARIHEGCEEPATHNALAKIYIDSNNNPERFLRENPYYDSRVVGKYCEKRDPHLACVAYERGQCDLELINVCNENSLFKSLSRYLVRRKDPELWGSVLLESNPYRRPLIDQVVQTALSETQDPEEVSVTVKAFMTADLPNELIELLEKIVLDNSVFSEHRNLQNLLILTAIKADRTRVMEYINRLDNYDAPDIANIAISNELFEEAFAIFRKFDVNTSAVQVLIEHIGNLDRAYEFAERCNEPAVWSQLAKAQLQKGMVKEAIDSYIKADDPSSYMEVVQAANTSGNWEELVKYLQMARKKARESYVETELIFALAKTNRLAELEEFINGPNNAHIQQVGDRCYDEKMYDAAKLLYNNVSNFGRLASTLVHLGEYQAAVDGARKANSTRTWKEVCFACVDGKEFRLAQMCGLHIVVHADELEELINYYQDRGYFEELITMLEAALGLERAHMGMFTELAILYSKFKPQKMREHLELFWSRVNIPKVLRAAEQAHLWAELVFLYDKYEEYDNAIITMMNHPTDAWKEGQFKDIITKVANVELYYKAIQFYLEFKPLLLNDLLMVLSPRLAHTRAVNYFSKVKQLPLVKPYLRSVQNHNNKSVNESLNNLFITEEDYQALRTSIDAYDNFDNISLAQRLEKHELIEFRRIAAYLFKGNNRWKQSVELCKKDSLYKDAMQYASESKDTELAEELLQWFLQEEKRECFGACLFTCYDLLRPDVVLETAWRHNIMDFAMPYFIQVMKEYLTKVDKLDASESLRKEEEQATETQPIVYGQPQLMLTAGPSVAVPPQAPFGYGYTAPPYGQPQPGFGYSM"}, "[2]": {"target": "clh1_rat Cltc (UniProt P11442)", "remark": "listed apart in the source"}, "[3]": {"target": "clh1_rat Cltc (UniProt P11442)", "remark": "listed apart in the source"}}, "data": [{"substance": "Inositol polyphosphate 5-phosphatase OCRL (Homo sapiens), Q01968 I74Q", "values": [{"measurement": "effect of a mutation on the interaction", "setting": "[1]", "value": "disrupting interaction"}]}, {"substance": "Inositol polyphosphate 5-phosphatase OCRL (Homo sapiens), Q01968 I76Q", "values": [{"measurement": "effect of a mutation on the interaction", "setting": "[2]", "value": "disrupting interaction"}]}, {"substance": "Inositol polyphosphate 5-phosphatase OCRL (Homo sapiens), Q01968 L73S", "values": [{"measurement": "effect of a mutation on the interaction", "setting": "[3]", "value": "disrupting interaction"}]}]}
